Assay results reported in patent US20120264685A1 (priority 2009, published 2012).
Each block holds one binder with its values, some of them ahead of it. Where no end group is shown, it is not given here. [ ]: non-standard residue; d: D form. Bip(2'-Et-4'-OMe) = CCc1cc(OC)ccc1-c1ccc(C[C@H](N)C(=O)O)cc1; αMePhe(2,6-F2) = C[C@](N)(Cc1c(F)cccc1F)C(=O)O; αMePhe(2-F) = C[C@](N)(Cc1ccccc1F)C(=O)O; αMeBip(OMe) = alpha-methylated Bip(OMe); hhPhe = N[C@@H](CCCc1ccccc1)C(=O)O; αMeD = C[C@](N)(CC(=O)O)C(=O)O; αMeP = C[C@@]1(C(=O)O)CCCN1; αMeAPPA = not defined here; αMeS = C[C@](N)(CO)C(=O)O; Aib = CC(C)(N)C(=O)O

Target: human glucagon receptor (human, UniProt P47871 26-477)
Assay: cell-based or functional assay

human glucagon receptor, sequence (P47871 26-477): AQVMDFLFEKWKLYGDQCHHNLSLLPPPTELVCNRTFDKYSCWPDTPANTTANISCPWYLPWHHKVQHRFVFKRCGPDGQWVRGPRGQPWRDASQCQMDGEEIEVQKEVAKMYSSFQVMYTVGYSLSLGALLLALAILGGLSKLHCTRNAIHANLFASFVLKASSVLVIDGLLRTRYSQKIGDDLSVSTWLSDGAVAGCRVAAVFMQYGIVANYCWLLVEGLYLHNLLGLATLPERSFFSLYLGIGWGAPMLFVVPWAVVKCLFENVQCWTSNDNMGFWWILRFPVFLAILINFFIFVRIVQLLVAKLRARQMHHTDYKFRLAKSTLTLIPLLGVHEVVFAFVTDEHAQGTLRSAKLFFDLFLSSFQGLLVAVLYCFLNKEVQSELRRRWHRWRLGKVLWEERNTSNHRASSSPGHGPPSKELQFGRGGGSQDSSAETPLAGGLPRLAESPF

B2: Seq. ID. No. 113 (peptide)
peptide: VH[Aib]EGTFT[αMeS][αMeD][Bip(2'-Et-4'-OMe)][αMeAPPA]
modifications: not fully specified (C-terminus); printed as VH-Aib-EGTFT-(αMe-Ser)-(αMe-Asp)-Bip(OMe)-(αMe-APPA); reading uncertain
- cAMP production (pmol/ml/µg prt) with saturated glucagon peptide, at 1 nM: 4 pmol/ml/µg prt
- cAMP production (pmol/ml/µg prt) with saturated glucagon peptide, at 10 nM: 2 pmol/ml/µg prt
- cAMP production (pmol/ml/µg prt) with saturated glucagon peptide, at 100 nM: 0 pmol/ml/µg prt
- cAMP production (pmol/ml/µg prt) with saturated glucagon peptide, at 1 µM: 0 pmol/ml/µg prt
- cAMP production (pmol/ml/µg prt) with saturated glucagon peptide, at 10 µM: 0 pmol/ml/µg prt

Binder: VH[Aib]QGT[αMePhe(2-F)]T[αMeS]D[αMeBip(OMe)][αMeAPPA] (not fully specified (C-terminus); reading uncertain) [Seq. ID. No. 167]
- cAMP production (pmol/ml/µg prt) with saturated glucagon peptide, at 1 nM: 9 pmol/ml/µg prt
- cAMP production (pmol/ml/µg prt) with saturated glucagon peptide, at 10 nM: 6 pmol/ml/µg prt
- cAMP production (pmol/ml/µg prt) with saturated glucagon peptide, at 100 nM: 5 pmol/ml/µg prt
- cAMP production (pmol/ml/µg prt) with saturated glucagon peptide, at 1 µM: 3 pmol/ml/µg prt
- cAMP production (pmol/ml/µg prt) with saturated glucagon peptide, at 10 µM: 0 pmol/ml/µg prt

Binder: VH[Aib]QGT[αMePhe(2,6-F2)]TS[αMeD][αMeBip(OMe)][αMeAPPA] (not fully specified (C-terminus); reading uncertain) [Seq. ID. No. 199]
- cAMP production (pmol/ml/µg prt) with saturated glucagon peptide, at 1 nM: 14 pmol/ml/µg prt
- cAMP production (pmol/ml/µg prt) with saturated glucagon peptide, at 10 nM: 11 pmol/ml/µg prt
- cAMP production (pmol/ml/µg prt) with saturated glucagon peptide, at 100 nM: 7 pmol/ml/µg prt
- cAMP production (pmol/ml/µg prt) with saturated glucagon peptide, at 1 µM: 3 pmol/ml/µg prt
- cAMP production (pmol/ml/µg prt) with saturated glucagon peptide, at 10 µM: 0 pmol/ml/µg prt

Binder: VH[Aib]EGTFTS[αMeD][αMeBip(OMe)][hhPhe]-NH2 [Seq. ID. No. 63]
- cAMP production (pmol/ml/µg prt) with saturated glucagon peptide, at 1 nM: 20 pmol/ml/µg prt
- cAMP production (pmol/ml/µg prt) with saturated glucagon peptide, at 10 nM: 18 pmol/ml/µg prt
- cAMP production (pmol/ml/µg prt) with saturated glucagon peptide, at 100 nM: 16 pmol/ml/µg prt
- cAMP production (pmol/ml/µg prt) with saturated glucagon peptide, at 1 µM: 14 pmol/ml/µg prt
- cAMP production (pmol/ml/µg prt) with saturated glucagon peptide, at 10 µM: 12 pmol/ml/µg prt

Results, then the binder that gave them:

- cAMP production (pmol/ml/µg prt) with saturated glucagon peptide, at 1 nM: 5 pmol/ml/µg prt
- cAMP production (pmol/ml/µg prt) with saturated glucagon peptide, at 10 nM: 3 pmol/ml/µg prt
- cAMP production (pmol/ml/µg prt) with saturated glucagon peptide, at 100 nM: 1 pmol/ml/µg prt
- cAMP production (pmol/ml/µg prt) with saturated glucagon peptide, at 1 µM: 0 pmol/ml/µg prt
- cAMP production (pmol/ml/µg prt) with saturated glucagon peptide, at 10 µM: 0 pmol/ml/µg prt
B1: Seq. ID. No. 87 (peptide)
peptide: VHSEGTFTSD[Bip(2'-Et-4'-OMe)][αMeAPPA]
modifications: not fully specified (C-terminus); printed as VHSEGTFTSD-Bip(OMe)-(αMe-APPA); reading uncertain

- cAMP production (pmol/ml/µg prt) with saturated glucagon peptide, at 1 nM: 15 pmol/ml/µg prt
- cAMP production (pmol/ml/µg prt) with saturated glucagon peptide, at 10 nM: 12 pmol/ml/µg prt
- cAMP production (pmol/ml/µg prt) with saturated glucagon peptide, at 100 nM: 8 pmol/ml/µg prt
- cAMP production (pmol/ml/µg prt) with saturated glucagon peptide, at 1 µM: 4 pmol/ml/µg prt
- cAMP production (pmol/ml/µg prt) with saturated glucagon peptide, at 10 µM: 2 pmol/ml/µg prt
B3: Seq. ID. No. 163 (peptide)
peptide: VH[Aib]EGTFT[αMeS]D[αMeBip(OMe)][αMeAPPA]
modifications: not fully specified (C-terminus); printed as VH-Aib-EGTFT-(αMe-Ser)-D-(αMe-Bip(OMe))-(αMe-APPA); reading uncertain

- cAMP production (pmol/ml/µg prt) with saturated glucagon peptide, at 1 nM: 10 pmol/ml/µg prt
- cAMP production (pmol/ml/µg prt) with saturated glucagon peptide, at 10 nM: 8 pmol/ml/µg prt
- cAMP production (pmol/ml/µg prt) with saturated glucagon peptide, at 100 nM: 6 pmol/ml/µg prt
- cAMP production (pmol/ml/µg prt) with saturated glucagon peptide, at 1 µM: 4 pmol/ml/µg prt
- cAMP production (pmol/ml/µg prt) with saturated glucagon peptide, at 10 µM: 1 pmol/ml/µg prt
Binder: VH[αMeP]QGT[αMePhe(2,6-F2)]TS[αMeD][αMeBip(OMe)][αMeAPPA] (not fully specified (C-terminus); reading uncertain) [Seq. ID. No. 200]

- cAMP production (pmol/ml/µg prt) with saturated glucagon peptide, at 1 nM: 2 pmol/ml/µg prt
- cAMP production (pmol/ml/µg prt) with saturated glucagon peptide, at 10 nM: 0 pmol/ml/µg prt
- cAMP production (pmol/ml/µg prt) with saturated glucagon peptide, at 100 nM: 0 pmol/ml/µg prt
- cAMP production (pmol/ml/µg prt) with saturated glucagon peptide, at 1 µM: 0 pmol/ml/µg prt
- cAMP production (pmol/ml/µg prt) with saturated glucagon peptide, at 10 µM: 0 pmol/ml/µg prt
Binder: VHAEGT[αMePhe(2-F)]TS[αMeD][αMeBip(OMe)][hhPhe]-NH2 [Seq. ID. No. 70]

- cAMP production (pmol/ml/µg prt) with saturated glucagon peptide, at 1 nM: 4 pmol/ml/µg prt
- cAMP production (pmol/ml/µg prt) with saturated glucagon peptide, at 10 nM: 2 pmol/ml/µg prt
- cAMP production (pmol/ml/µg prt) with saturated glucagon peptide, at 100 nM: 0 pmol/ml/µg prt
- cAMP production (pmol/ml/µg prt) with saturated glucagon peptide, at 1 µM: 0 pmol/ml/µg prt
- cAMP production (pmol/ml/µg prt) with saturated glucagon peptide, at 10 µM: 0 pmol/ml/µg prt
B4: Seq. ID. No. 189 (peptide)
peptide: VHSQGT[αMePhe(2-F)]TS[αMeD][αMeBip(OMe)][αMeAPPA]
modifications: not fully specified (C-terminus); printed as VHSQGT-(αMe-2FPhe)-TS-(αMe-Asp)-(αMe-Bip(OMe))-(αMe-APPA); reading uncertain

- cAMP production (pmol/ml/µg prt) with saturated glucagon peptide, at 1 nM: 10 pmol/ml/µg prt
- cAMP production (pmol/ml/µg prt) with saturated glucagon peptide, at 10 nM: 8 pmol/ml/µg prt
- cAMP production (pmol/ml/µg prt) with saturated glucagon peptide, at 100 nM: 6 pmol/ml/µg prt
- cAMP production (pmol/ml/µg prt) with saturated glucagon peptide, at 1 µM: 2 pmol/ml/µg prt
- cAMP production (pmol/ml/µg prt) with saturated glucagon peptide, at 10 µM: 0 pmol/ml/µg prt
Binder: VH[Aib]EGT[αMePhe(2-F)]TSD[αMeBip(OMe)][hhPhe]-NH2 [Seq. ID. No. 23]
